The values below come from patent US20170015742A1 (published 2017).

Changes are numbered by the printed parent chain. Some results are limits rather than exact numbers.

B1: hBEW-5C3.5 (antibody, V domains shown)
VH: EIQLVQSGAEVKKPGSSVKVSCKASGYTFTNYGVYWVKQAPGQGLEYMGWINTETGKPTYADDFKGRFTFTLDKSTSTAYMELSSLRSEDTAVYFCARARQLDWFVYWGQGTLVTVSS
VL: DTQLTQSPSSLSASVGDRVTISCRARESLTTSLSWFQQKPGKQPKLLIYGASKLESGVPSRFSGSGSGTDFTLTISSLQPEDFATYFCQQSWYDPPTFGGGTKVEIK
notes: Humanized IgG made from pHybE vectors in HEK293 cells
B2: hBEW-9E10.1 (antibody, V domains shown)
VH: EIQLVQSGSELKKPGASVKVSCKASGYTFTNYGMYWVKQAPGQGLEYMGWIDTETGRPTYADDFKGRFVFSLDTSVSTAYLQISSLKAEDTAVYFCARWSGDTTGIRGPWFAYWGQGTLVTVSS
VL: DIRMTQSPSSLSASVGDRVTIECLASEDIYSDLAWYQQKPGKSPKLLIYNANGLQNGVPSRFSGSGSGTDYSLTISSLQPEDVATYFCQQYNYFPGTFGQGTKLEIK
notes: Humanized IgG made from pHybE vectors in HEK293 cells; also called AB642 (9E10.1)
B3: hBEW-9E10.2 (antibody, V domains shown)
VH: EIQLVQSGAEVKKPGSSVKVSCKASGYTFTNYGMYWVKQAPGQGLEYMGWIDTETGRPTYADDFKGRFTFTADKSTSTAYMELSSLRSEDTAVYFCARWSGDTTGIRGPWFAYWGQGTLVTVSS
VL: B2 VL
notes: as for B1
B4: hBEW-9E10.4 (antibody, V domains shown)
VH: B2 VH
VL: B2 VL with E22T, S72T
notes: as for B1
B5: hBEW-9E10.5 (antibody, V domains shown)
VH: B3 VH
VL: B2 VL with E22T, S72T
notes: as for B1
B6: hBEW-9E10.3 (antibody, V domains shown)
VH: B3 VH with I2V, K38R, Y47W, F95Y
VL: B2 VL
notes: as for B1
B7: hBEW-9E10.6 (antibody, V domains shown)
VH: B3 VH with I2V, K38R, Y47W, F95Y
VL: B2 VL with E22T, S72T
notes: as for B1
B8: hBEW-5C3.1 (antibody, V domains shown)
VH: EIQLVQSGSELKKPGASVKVSCKASGYTFTNYGVYWVKQAPGQGLEYMGWINTETGKPTYADDFKGRFVFSLDTSVSTAYLQISSLKAEDTAVYYCARARQLDWFVYWGQGTLVTVSS
VL: DTVLTQSPATLSLSPGERATLSCRARESLTTSLSWFQQKPGQQPRLLIYGASKLESGVPARFSGSGSGTDFTLTISSLEPEDFAVYFCQQSWYDPPTFGGGTKVEIK
notes: as for B1
B9: hBEW-5C3.4 (antibody, V domains shown)
VH: B8 VH
VL: B1 VL
notes: as for B1
B10: hBEW-1B10.1 (antibody, V domains shown)
VH: EVQLVESGGGLVQPGGSLRLSCAASGFSFSKYDMAWFRQAPGKGLEWVASITTSGVGTYYRDSVKGRFTVSRDNAKSTLYLQMNSLRAEDTAVYYCARGYGAMDAWGQGTTVTVSS
VL: DIQMTQSPSSLSASVGDRVTITCKASQDIDDYLSWYQQKPGKSPKLVIYAATRLADGVPSRFSGSGSGTDYTLTISSLQPEDFATYYCLQSSSTPWTFGGGTKVEIK
notes: as for B1
B11: hBEW-1B10.2 (antibody, V domains shown)
VH: B10 VH with S77N, T78S
VL: B10 VL
notes: as for B1
B12: hBEW-9A8.20 (antibody, V domains shown)
VH: EIQLVQSGAEVKKPGASVKVSCKASGYTFTNYGMYWVKQAPGQGLEYMGWINTETGKPIYADDFKGRFTFTLDTSTSTAYMELRSLRSDDTAVYYCARVDYDGSFWFAYWGQGTLVTVSS
VL: ETVLTQSPATLSLSPGERATLSCRASESVSTVIHWYQQKPGQQPRLLIHGASNLESGVPARFSGSGSGTDFTLTISSLEPEDFAVYFCQQHWNDPPTFGQGTKLEIK
notes: as for B1
B13: hBEW-9A8.17 (antibody, V domains shown)
VH: EIQLVQSGSELKKPGASVKVSCKASGYTFTNYGMYWVKQAPGQGLEYMGWINTETGKPIYADDFKGRFVFSLDTSVSTAYLQISSLKAEDTAVYYCARVDYDGSFWFAYWGQGTLVTVSS
VL: B12 VL
notes: as for B1
B14: hBEW-9A8.21 (antibody, V domains shown)
VH: B12 VH with K38R, Y47W
VL: B12 VL
notes: as for B1
B15: hBDI-9E8.1 (antibody, V domains shown)
VH: EVTLRESGPALVKPTQTLTLTCTFSGFSLSTYGMGVGWIRQPPGKALEWLANIWWDDDKYYNPSLKNRLTISKDTSKNQVVLTMTNMDPVDTATYYCARIESIGTTYSFDYWGQGTMVTVSS
VL: NFMLTQPHSVSESPGKTVTISCERSSGDIGDSYVSWYQQRPGSSPTTVIYADDQRPSGVPDRFSGSIDSSSNSASLTISGLKTEDEADYYCQSYDINIDIVFGGGTKLTVL
notes: Humanized IgG
B16: hBDI-9E8.10 (antibody, V domains shown)
VH: B15 VH with V80A, M84I, M117T
VL: DFQLTQSPSSLSASVGDRVTITCERSSGDIGDSYVSWYQQKPGKAPKNVIYADDQRPSGVPSRFSGSGSGNSASLTISSLQPEDFATYYCQSYDINIDIVFGQGTKVEIK
notes: Humanized IgG
B17: hBDI-9E8.9 (antibody, V domains shown)
VH: B15 VH with V80A, M84I, M117T
VL: DFVLTQSPDSLAVSLGERATINCERSSGDIGDSYVSWYQQKPGQPPKNVIYADDQRPSGVPDRFSGSGSGNSASLTISSLQAEDVAVYFCQSYDINIDIVFGGGTKVEIK
notes: Humanized IgG
B18: hBDI-9E8.3 (antibody, V domains shown)
VH: B15 VH
VL: EIVLTQSPGTLSLSPGERATLSCERSSGDIGDSYVSWYQQKPGQAPRLLIYADDQRPSGIPDRFSGSGSGTDFTLTISRLEPEDFAVYYCQSYDINIDIVFGGGTKVEIK
notes: Humanized IgG
B19: hBDI-9E8.2 (antibody, V domains shown)
VH: B15 VH
VL: B15 VL with S44P, T47N, Y90F
notes: Humanized IgG
B20: hBDI-9E8.5 (antibody, V domains shown)
VH: B15 VH with A46G, V80A, M84I
VL: B15 VL
notes: Humanized IgG
B21: hBDI-9E8.7 (antibody, V domains shown)
VH: B15 VH with A46G, V80A, M84I
VL: B18 VL
notes: Humanized IgG
B22: hBDI-9E8.6 (antibody, V domains shown)
VH: B15 VH with A46G, V80A, M84I
VL: B15 VL with S44P, T47N, Y90F
notes: Humanized IgG
B23: hBDI-9E8.4 (antibody, V domains shown)
VH: B15 VH
VL: B18 VL with I2F, L49V
notes: Humanized IgG
B24: hBDI-9E8.11 (antibody, V domains shown)
VH: EVQLVESGGGLVQPGGSLRLSCAFSGFSLSTYGMGVGWIRQAPGKGLEWLANIWWDDDKYYNPSLKNRLTISKDTSKNQAYLQINSLRAEDTAVYYCARIESIGTTYSFDYWGQGTLVTVSS
VL: B17 VL
notes: Humanized IgG
B25: hBDI-9E8.12 (antibody, V domains shown)
VH: B24 VH
VL: B16 VL
notes: Humanized IgG

T1 sequence (P15692 other isoform, or with tags, fused parts or gaps limits assumed): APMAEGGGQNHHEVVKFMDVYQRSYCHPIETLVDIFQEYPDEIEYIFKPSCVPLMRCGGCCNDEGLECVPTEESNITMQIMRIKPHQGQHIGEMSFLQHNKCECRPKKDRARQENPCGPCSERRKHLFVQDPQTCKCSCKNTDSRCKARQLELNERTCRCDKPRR

The first test has as its target T1, human VEGF-A (human, UniProt P15692-4 27-191, limits assumed).
T1 construct: also called huVEGF-A
As to the kind of experiment: SPR (Biacore), antibody captured by anti-human Fc, VEGF-A injected. Here is the method:
(§1) For example, approximately 9000 RU of goat anti-human Fc specific polyclonal antibody (Thermo Fisher Scientific Inc., Rockford, Ill.) diluted in 10 mM sodium acetate (pH 4.5) is directly immobilized across a CM5 research grade biosensor chip using a standard amine coupling kit according to manufacturer's instructions and procedures at 25 μg/ml. Unreacted moieties on the biosensor surface were blocked with ethanolamine. For kinetic analysis, rate equations derived from the 1:1 Langmuir binding model were fitted simultaneously to multiple antigen injections (using global fit analysis) with the use of Scrubber 2 (BioLogic Software), Biacore Biaevaluation 4.0.1 software or Biacore T100 Evaluation software. Purified antibodies or DVD-Ig molecules were diluted in running buffer for capture across goat anti-human Fc reaction surfaces. Antibodies or DVD-Ig molecules to be captured as a ligand (1 μg/ml) were injected over reaction matrices at a flow rate of 10 μl/minute. During the assay, all measurements were referenced against the capture surface alone (i.e., with no captured antibody or DVD-Ig molecule). […] The equilibrium dissociation constant KD (M) of the reaction between antibodies and the target antigen was then calculated from the kinetic rate constants by the following formula: KD=Koff/Kₒₙ. Binding was recorded as a function of time and kinetic rate constants were calculated.
(In general: Surface plasmon resonance follows binding to a sensor surface in real time, without labels.)
By Kd is commonly meant the constant that tells how readily two partners part at equilibrium. A higher Kd goes with weaker binding. The kon is the second-order rate constant of association. Read a low kon as slow association. B1 yielded a Kd of 8.5 pM and a kon of 1.2e+07 M⁻¹ s⁻¹.

In turn, B2 showed a Kd of 2.1 pM and a kon of 1.2e+07 M⁻¹ s⁻¹.

The molecule B3 yielded a Kd of 12 pM and an on-rate (kon) of 1.6e+07 M⁻¹ s⁻¹.

B4 registered a Kd of 2.1 pM and a kon of 1.2e+07 M⁻¹ s⁻¹.

The molecule B5 returned a Kd of 15 pM and a kon of 1.6e+07 M⁻¹ s⁻¹.

Turning to B6, the dissociation constant Kd stood at 3.2 pM and the kon was determined as 1.3e+07 M⁻¹ s⁻¹.

B7 displayed a dissociation constant (Kd) of 2.6 pM and a kon of 1.5e+07 M⁻¹ s⁻¹.

For the molecule B8, the Kd amounted to 6 pM and the kon was determined as 1.1e+07 M⁻¹ s⁻¹.

B9: binding was characterised by a dissociation constant (Kd) of 8.6 pM and the kon came out at 9.9e+06 M⁻¹ s⁻¹.

On to B10, for which the Kd worked out at 18 pM and the kon turned out to be 7.6e+06 M⁻¹ s⁻¹.

As to B11, binding was put at a Kd of 20 pM and the kon was 7.5e+06 M⁻¹ s⁻¹.

In turn, B12 came in with a Kd of 1.6 pM and a kon of 7.6e+06 M⁻¹ s⁻¹.

The molecule B13 showed a Kd of 1.7 pM and a kon of 7.9e+06 M⁻¹ s⁻¹.

Molecule B14 yielded a Kd of 6.7 pM and a kon of 5.8e+06 M⁻¹ s⁻¹.

For another test, the target named is T2, Human PDGF-BB (human, UniProt P01127 82-190).
T2 construct: Recombinant human PDGF-BB, a homodimer of two B chains; also called hPDGF-BB; huPDGF-BB
T2 sequence (P01127 82-190 limits assumed): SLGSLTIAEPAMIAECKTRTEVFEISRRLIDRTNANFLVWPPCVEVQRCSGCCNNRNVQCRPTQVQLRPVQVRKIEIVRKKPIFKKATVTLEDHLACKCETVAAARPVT
As to the kind of experiment: SPR (Biacore), antibody captured via anti-human Fc, antigen in solution. Here is the method: as §1
For B15, the dissociation constant (Kd) was at most 560 pM and the kon is at least 1e+07 M⁻¹ s⁻¹.

In the case of B16, the dissociation constant (Kd) was at most 180 pM and the association rate constant (kon) is at least 1e+07 M⁻¹ s⁻¹.

In turn, B17 displayed a Kd of at most 150 pM and an on-rate (kon) of at least 1e+07 M⁻¹ s⁻¹.

In the case of B18, the dissociation constant Kd is at most 65 pM and the kon is at least 1e+07 M⁻¹ s⁻¹.

B19 gave a Kd of at most 510 pM and a kon of at least 1e+07 M⁻¹ s⁻¹.

Regarding B20, the Kd is at most 210 pM and the kon is at least 1e+07 M⁻¹ s⁻¹.

The molecule B21 gave a Kd of at most 45 pM and an on-rate constant (kon) of at least 1e+07 M⁻¹ s⁻¹.

In turn, B22 gave a Kd of at most 210 pM and a kon of at least 1e+07 M⁻¹ s⁻¹.

Molecule B23 yielded a Kd of at most 21 pM and a kon of over 1e+07 M⁻¹ s⁻¹.

Turning to B24, the equilibrium dissociation constant (Kd) was at most 74 pM and the kon was at least 1e+07 M⁻¹ s⁻¹.

B25 displayed an equilibrium dissociation constant (Kd) of at most 210 pM and a kon of at least 1e+07 M⁻¹ s⁻¹.
